System: MS2 coat protein
Assay: apparent KD of MS2 coat protein; designed switch direction (-1 OFF switch, 1 ON switch): 1; higher = weaker reporter binding
Procedure, shortened: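 Three titration conditions were used: no input, 200 uM small-molecule ligand, and an oligonucleotide input. In each, SNAP-549-labelled MS2 coat protein was raised from 0.7 or 1.5 nM, doubling, to 3 µM over designed RNA switches transcribed on Illumina chips by stalled E. coli RNA polymerase. Curve fits of normalised cluster fluorescence gave values whose per-design median over clusters is the apparent KD.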

[1] = input ligand: microRNA oligo, concentration not stated
[2] = Eterna round: R95, input ligand: FMN 200 uM
[3] = Eterna round: R95, input ligand: microRNA oligo, concentration not stated
[4] = Eterna round: R95, input ligand: none

Sequence	apparent KD of MS2 coat protein (input ligand: FMN 200 uM)	apparent KD of MS2 coat protein [1]	apparent KD of MS2 coat protein (input ligand: none)	apparent KD of MS2 coat protein [2]	apparent KD of MS2 coat protein [3]	apparent KD of MS2 coat protein [4]
UGUACCUUCACAGGAUAUCAUGCGAAAAUUGCGUGAGAAGGGUGAAUACGGUGUUAAUAAAAGCACAUGAGGAUCACCCAUGUA [SameState NG1 #56] (Eterna round: R96, puzzle: Same State NG 1)	303 nM	246 nM	471 nM	–	–	–
GGUCCAGCCUGAGCUGGACAAAAGCAUGUACAUGAGGAUCACCCAUGUCGUGUACAAGCUUUUUGCUCGUCUUAAAA [JL mod - D87 - 5] (puzzle: Sensor for hsa-mir-208a)	–	–	–	215 nM	13.9 nM	296 nM
GGAAUAUUUACAGGAUAUGAUUUGUAAAGUCGAUCAGAAGGGUGGAUGUCUUACACGGUUUGUUACAUGAGGAUCACCCAUGUC [SameState NG1 #13] (Eterna round: R96, puzzle: Same State NG 1)	232 nM	233 nM	378 nM	–	–	–
GUGCUCAUGUAAGGAUAUGCAGCCGUUUCGGCUGCAGAAGGUACUAUAAUACAUGAGGAUCACCCAUGUCUCUAUAAUUUGGUG [salish99_SSNG1_r04_903] (Eterna round: R96, puzzle: Same State NG 1)	–	76.5 nM	–	–	–	–
AUAAGUUCGAUGCUCGUCUCUCCGUACAAACAUGAGGAUCACCCAUGUGGUCGGGAAGUAGCCCGGCCAGUAUGACC [Arbesoce] (puzzle: Sensor for hsa-mir-208a)	–	–	–	31.2 nM	22 nM	29 nM
CGUCGUUUGAUAGGAUAUCGCUUUACAUGCGGAUCACCCAUGUUUACCACGCUGGUUUUUCUUUCCGAGAAGGAUUCUGAUGUU [salish99_SSNG02_r04_026] (Eterna round: R96, puzzle: Same State NG 2)	42 nM	10.1 nM	134 nM	–	–	–
AGUCCAGCCUGAGCUGGACAAAAGCAUGUACAUGAGGAUCACCCAUGUUCAUGUACAAGCUUUUUGCUCGUCUUGUA [salish99_208a_r3_102x] (puzzle: Sensor for hsa-mir-208a)	–	–	–	367 nM	17.2 nM	483 nM
UACAAUCUAUCUGAGGAUAUCAUGAAAAAAACAUGAGGAUCACCCAUGUGCAGGAAAACUGCAUAUGAGAAGGCAGAUAGAUUGA [salish99_SS2_r3_005] (puzzle: Same State 2)	–	–	–	27.4 nM	585 nM	721 nM
CGUCCGGCCUGUGCUGGCCGGUUGCAUGUACAUGAGGAUCACCCAUGUUCAUGUGCAGGCUUUUUGCUCGUCUUGUG [salish99_mir208a_013] (puzzle: Sensor for hsa-mir-208a)	–	–	–	19.4 nM	11.2 nM	18.9 nM
UAGUAUCAACGAGGAUAUAAUAUGUUCAAUUUUUUAUAUUGUUUACAUGAGGAUCACCCAUGUUAUUAGAAGGCGUAUGGGAUU [JR_SSNG2_Sub083] (Eterna round: R96, puzzle: Same State NG 2)	–	47.2 nM	–	–	–	–
GGAGCCGGCACUGAGGAUAUUCAUAUUAAAACAUGAGGAUCACCCAUGUAGGCCAGAAGGCCUUGGGAGAAGGCAGGUCGGCUCA [Mat - Same State 2 - Mod of UCT - D59] (puzzle: Same State 2)	–	–	–	20.5 nM	235 nM	338 nM
GCUGGAAACCACAUGAGGAUCACCCAUGUUCCGGAAACGGCGCAGGAUAUCUGUCCGAAAAGGUCAGAGAAGGGUGAAACCAGC [Fiskers NG3ss - 80] (Eterna round: R96, puzzle: Same State NG 3)	600 nM	387 nM	346 nM	–	–	–
GCUACCAAAGAAGCCAACAUGAGGAUCACCCAUGUAUGUUGGCAGGAUAUCGAUUGCAAAGCGAUCGAGAAGGGCUAAGGUAGC [Mat - Same State NG 3 - JL Mod - D88] (Eterna round: R96, puzzle: Same State NG 3)	147 nM	214 nM	204 nM	–	–	–
CAAGAAAACGCAGGAUAUACUCGGGCUACCCGAGUAGAAGGGUGACACAUGAGGAUCACCCAUGUACAUAGCAUUAGCUAUGGA [Onedve] (Eterna round: R96, puzzle: Same State NG 1)	2270 nM	827 nM	770 nM	–	–	–
AAGUAGGAGUUACAGGAUAUAUGGAGGAGGACAUGAGGAUCACCCAUGUGAGAGAUGAGAGGAGGAUAGAAGGGUAAGGGAGUAA [JR_SS2_Sub027] (puzzle: Same State 2)	–	–	–	24.1 nM	20.9 nM	32 nM

From the supplement of paper PMC9170038
